For 41 variants, self-cleavage results are on record in the RNAGym collection of RNA variant scans (doi:10.7554/elife.90254).

B1: OR4K15 (parent)
chain: GUUAACGGUCAUAGGCCAUGGAAACUAGGAGCACCAUUUCGCUGCCAGUGAAGAAAUGAACAAAGAAAAUCUGGGCCAGGCAGGCAUCAAAAGAAAUAGUCUUGCGCUCAACCAGAAAGUCUGUAAUCAUUUUAAGGGUA

Variants of B1 are the subject of the data set. The data set can be described thus: self-cleavage, relative activity (ratio to wild type); higher = more cleavage; in vitro, sequencing; the parent is a self-cleaving ribozyme.
On to GCUAACGGUCAUAGGCCAAGGAAACUAGGAGCACCAUUUCGCUGCCAGUGAAGAAAUGAACAAAGAAAAUCUGGGCCAGGCAGGCAUCAAAAGAAAUAGUCUUGCGCUCAACCAGAAAGUCUGUAAUCAUUUUAAGGGUA [U2C U19A], for which the self-cleavage is 1.16.
Then GCUAACGGUCAUAGGCCACGGAAACUAGGAGCACCAUUUCGCUGCCAGUGAAGAAAUGAACAAAGAAAAUCUGGGCCAGGCAGGCAUCAAAAGAAAUAGUCUUGCGCUCAACCAGAAAGUCUGUAAUCAUUUUAAGGGUA [U2C U19C], with 0.96.
Then GCUAACGGUCAUAGGCCAUGGAAACUAGGAGCACCAUUUCGCUGCCAGUGAAGAAAUGAACAAAGAAAAUCUGGGCCAGGCAGGCAUCAAAAGAAAUAGUCUUGCGCUCAACCAGAAAGACUGUAAUCAUUUUAAGGGUA [U2C U120A], with 1.03; and GCUAACGGUCAUAGGCCAUGGAAACUAGGAGCACCAUUUCGCUGCCAGUGAAGAAAUGAACAAAGAAAAUCUGGGCCAGGCAGGCAUCAAAAGAAAUAGCCUUGCGCUCAACCAGAAAGUCUGUAAUCAUUUUAAGGGUA [U2C U100C], with 1.61; and GCUAACGGUCAUAGGCCAUGGAAACAAGGAGCACCAUUUCGCUGCCAGUGAAGAAAUGAACAAAGAAAAUCUGGGCCAGGCAGGCAUCAAAAGAAAUAGUCUUGCGCUCAACCAGAAAGUCUGUAAUCAUUUUAAGGGUA [U2C U26A], with 0.37.
Then GCUAACGGUCAUAGGCCAUGGAAACUAGGAGCACCAUUGCGCUGCCAGUGAAGAAAUGAACAAAGAAAAUCUGGGCCAGGCAGGCAUCAAAAGAAAUAGUCUUGCGCUCAACCAGAAAGUCUGUAAUCAUUUUAAGGGUA [U2C U39G], with 1.43; and GCUAACGGUCAUAGGCCAUGGAAACUAGGAGCACCAUUACGCUGCCAGUGAAGAAAUGAACAAAGAAAAUCUGGGCCAGGCAGGCAUCAAAAGAAAUAGUCUUGCGCUCAACCAGAAAGUCUGUAAUCAUUUUAAGGGUA [U2C U39A], with 1.17.
Take GCUAACGGUCAUAGGCCAUGGAAACUAGGAGCACCAUUCCGCUGCCAGUGAAGAAAUGAACAAAGAAAAUCUGGGCCAGGCAGGCAUCAAAAGAAAUAGUCUUGCGCUCAACCAGAAAGUCUGUAAUCAUUUUAAGGGUA [U2C U39C]: the self-cleavage worked out at 0.7.
In the case of GCUAACGGUCAUAGGCCAUGGAAACUAGGAGCACCAUUUCGCUGCCAGUGAAGAAAUGAACAAAGAAAAUCUAGGCCAGGCAGGCAUCAAAAGAAAUAGUCUUGCGCUCAACCAGAAAGUCUGUAAUCAUUUUAAGGGUA [U2C G73A], the self-cleavage was determined as 0.22.
GCUAACGGUCAUAGGCCAUGGAAACUAGAAGCACCAUUUCGCUGCCAGUGAAGAAAUGAACAAAGAAAAUCUGGGCCAGGCAGGCAUCAAAAGAAAUAGUCUUGCGCUCAACCAGAAAGUCUGUAAUCAUUUUAAGGGUA [U2C G29A]: the self-cleavage stood at 1.36.
GCUAACGGUCAUAGGCCAUGGAAACUAGGAGCACCAUUUCGCUGCCAGUGAAGAAAUGAACAAAGAAAAUCUGGGCCAGGCAAGCAUCAAAAGAAAUAGUCUUGCGCUCAACCAGAAAGUCUGUAAUCAUUUUAAGGGUA [U2C G83A]: the self-cleavage came to 0.87.
Then GCUAACGGUCAUAGGCCAUGGAAACUAGGAGCACCAUUUCGCUGCCAGUGAAGAAAUGAACAAAGAAAAUCAGGGCCAGGCAGGCAUCAAAAGAAAUAGUCUUGCGCUCAACCAGAAAGUCUGUAAUCAUUUUAAGGGUA [U2C U72A], with 0.1; and GCUAACGGUCAUAGGCCAUGGAAACUAGGAGCACCAUUUCGCUGCCAGUGAAGAAAUGAACAAAGAAAAUCCGGGCCAGGCAGGCAUCAAAAGAAAUAGUCUUGCGCUCAACCAGAAAGUCUGUAAUCAUUUUAAGGGUA [U2C U72C], with 0.15; and GCUAACGGUCAUAGGCCAUGGAAACUAGGAGCACCAUUUCGUUGCCAGUGAAGAAAUGAACAAAGAAAAUCUGGGCCAGGCAGGCAUCAAAAGAAAUAGUCUUGCGCUCAACCAGAAAGUCUGUAAUCAUUUUAAGGGUA [U2C C42U], with 1.46.
Then GCUAACGGUCAUAGGCCAUGGAAACUAGGAGCACCAUUUCACUGCCAGUGAAGAAAUGAACAAAGAAAAUCUGGGCCAGGCAGGCAUCAAAAGAAAUAGUCUUGCGCUCAACCAGAAAGUCUGUAAUCAUUUUAAGGGUA [U2C G41A], with 1.29; and GCUAACGGUCAUAGGCCAUGGAAACUAGGAGCACCAUUUCGCUGCCAGUGAAGAAAUGAACAAAGAAAAUCUGGGCCAGGCAGGCAUCAAAAGAAAUAGUCUUGCGCUCAACCAGAAAGUCUGUAAUCAUUUUAAGGGUU [U2C A140U], with 1.55.
For GCUAACGGUCAUAGGCCAUGGAAACUAGGAGCACCAUUUCGCUGCCAGUGAAGAAAUGAACAAAGAAAAUCUGGGCCAGGCAGGCAUCAAAAGAAACAGUCUUGCGCUCAACCAGAAAGUCUGUAAUCAUUUUAAGGGUA [U2C U97C], the self-cleavage was determined as 0.55.
As to GCUAACGGUCAUAGGCCAUGGAAACUAGGAGCACCAUUUCGCUGCCAGUGAAGAAAUGAACAAAGAAAAUCUGGGUCAGGCAGGCAUCAAAAGAAAUAGUCUUGCGCUCAACCAGAAAGUCUGUAAUCAUUUUAAGGGUA [U2C C76U], the self-cleavage was 0.23.
Then GCUAACGGUCAUAGGCCAUGGAAACUAGGAGCACCAUUUCGCUGCCAGUGAAGAAAUGAACAAAGAAAAUCUGGGCCAGGCAGGCAUCAAAAGAAAUAGUCUUCCGCUCAACCAGAAAGUCUGUAAUCAUUUUAAGGGUA [U2C G104C], with 0.1.
For the variant GCUAACGGUCAUAGGCCAUGGAAACUAGGAGCACCAUUUCGCUGCCAGUGAAGAAAUGAACAAAGAAAACCUGGGCCAGGCAGGCAUCAAAAGAAAUAGUCUUGCGCUCAACCAGAAAGUCUGUAAUCAUUUUAAGGGUA [U2C U70C], the self-cleavage was determined as 0.46.
In the case of GCUAACGGUCAUAGGCCAUGGAAACUAGGAGCACCAUUUCGCUGCCAGUGAAGAAAUGAACAAAGAAAAACUGGGCCAGGCAGGCAUCAAAAGAAAUAGUCUUGCGCUCAACCAGAAAGUCUGUAAUCAUUUUAAGGGUA [U2C U70A], the self-cleavage was found to be 0.71.
Then GCUAACGGUCAUAGGCCAUGGAAACUAGGAGCACCAUUUCGCUGCCAGUGAAGAAAUGAACAAAGAAAAUCUGGGCCAGGCAGGCAUCAAAAGAAAUAGUCUUGUGCUCAACCAGAAAGUCUGUAAUCAUUUUAAGGGUA [U2C C105U], with 0.03; and GCUAACGGUCAUAGGCCAUGGAAACUAGGAGCACCAUUUCGCUGCCAGUGAAGAAAUGAACAAAGAAAAUCUGGGCCAGGCAGGCAUCAAAAGAAAUAGUCUUGCACUCAACCAGAAAGUCUGUAAUCAUUUUAAGGGUA [U2C G106A], with 0.03.
For the variant GCUAACGGUCAUAGGCCAUGGAAACUAGGAGCACCAUUUCGCUGCCAGUGAAGAAAUGAACAAAGAAAAUCUGGGCCAGGCAGGCACCAAAAGAAAUAGUCUUGCGCUCAACCAGAAAGUCUGUAAUCAUUUUAAGGGUA [U2C U87C], the self-cleavage was 0.43.
For GCUAACGGUCAUAGGCCAUGGAAACUAGGAGCACCAUUUCGCCGCCAGUGAAGAAAUGAACAAAGAAAAUCUGGGCCAGGCAGGCAUCAAAAGAAAUAGUCUUGCGCUCAACCAGAAAGUCUGUAAUCAUUUUAAGGGUA [U2C U43C], the self-cleavage came out at 1.57.
Turning to GCUAACGGUCAUAGGCCAUGGAAACUAGGAGCACCAUUUCGCAGCCAGUGAAGAAAUGAACAAAGAAAAUCUGGGCCAGGCAGGCAUCAAAAGAAAUAGUCUUGCGCUCAACCAGAAAGUCUGUAAUCAUUUUAAGGGUA [U2C U43A], the self-cleavage worked out at 1.
Then GCUAACGGUCAUAGGCCAUGGAAACUAGGAGCACCAUUUCGCUGCCAGUGAAGAAAUGAACAAAGAAAAUCUGGGCCAGGCAGGCAUCAAAAGAAAUAGUCUUGCGCUCAACCAGAAAAUCUGUAAUCAUUUUAAGGGUA [U2C G119A], with 1.05; and GCUAACGGACAUAGGCCAUGGAAACUAGGAGCACCAUUUCGCUGCCAGUGAAGAAAUGAACAAAGAAAAUCUGGGCCAGGCAGGCAUCAAAAGAAAUAGUCUUGCGCUCAACCAGAAAGUCUGUAAUCAUUUUAAGGGUA [U2C U9A], with 0.57; and GCUAACGGCCAUAGGCCAUGGAAACUAGGAGCACCAUUUCGCUGCCAGUGAAGAAAUGAACAAAGAAAAUCUGGGCCAGGCAGGCAUCAAAAGAAAUAGUCUUGCGCUCAACCAGAAAGUCUGUAAUCAUUUUAAGGGUA [U2C U9C], with 0.83.
Then GCUAACGGUCAUAGGCCAUGGAAACUAGGAGCACCAUUUCGCUGCCAGUGAAGAAAUGAACAAAGAAAAUCUGGGCCAGGCAGGCAUCAAAAGAAAUAGUCUAGCGCUCAACCAGAAAGUCUGUAAUCAUUUUAAGGGUA [U2C U103A], with 0.62; and GCUAACGGUCAUAGGCCAUGGAAACUAGGAGCACCAUUUCGCUGCCAGUGAAGAAAUGAACAAAGAAAAUCUGGGCCAGGCAGGCAUCAAAAGAAAUAGUCUUGCGCCCAACCAGAAAGUCUGUAAUCAUUUUAAGGGUA [U2C U108C], with 0.03.
For GCUAACGGUCAUAGGCCAUGGAAACUAGGAGCACCAUUUCGCUGGCAGUGAAGAAAUGAACAAAGAAAAUCUGGGCCAGGCAGGCAUCAAAAGAAAUAGUCUUGCGCUCAACCAGAAAGUCUGUAAUCAUUUUAAGGGUA [U2C C45G], the self-cleavage was found to be 1.29.
Then GCUAACGGUCAUAGGCCAUGGAAACUAGGAGCACCAUUUCGCUGCCAGUGAAGAAAUGAACAAAGAAAAUCUGGGCCAGGCAGGCAUCAAAAGAAAUAGUCUUGCGCUCAACCAGAAAGUCUGUAAUCAUUUUGAGGGUA [U2C A134G], with 1.59.
Then GCUAACGGUCAUAGGCCAUGGAAACUAGGAGCACCAUUUCGCUGCCAGUGAAGAAAUGAACAAAGAAAAUCUGGGCCAGGCAGGCAUCAAAAGAAAUAGUCUUGCGCUCAACCAGAAAGUCUGUAAUCAUUUUUAGGGUA [U2C A134U], with 0.69.
In the case of GCUAACGGUCACAGGCCAUGGAAACUAGGAGCACCAUUUCGCUGCCAGUGAAGAAAUGAACAAAGAAAAUCUGGGCCAGGCAGGCAUCAAAAGAAAUAGUCUUGCGCUCAACCAGAAAGUCUGUAAUCAUUUUAAGGGUA [U2C U12C], the self-cleavage was 0.74.
Then GCUAACGGUCAGAGGCCAUGGAAACUAGGAGCACCAUUUCGCUGCCAGUGAAGAAAUGAACAAAGAAAAUCUGGGCCAGGCAGGCAUCAAAAGAAAUAGUCUUGCGCUCAACCAGAAAGUCUGUAAUCAUUUUAAGGGUA [U2C U12G], with 0.39; and GCUAACGGUCAUAGGCCAUGGAAACUAGGAGCACCAUUUCGCUGCCAGUGAAAAAAUGAACAAAGAAAAUCUGGGCCAGGCAGGCAUCAAAAGAAAUAGUCUUGCGCUCAACCAGAAAGUCUGUAAUCAUUUUAAGGGUA [U2C G53A], with 1.18; and GCUAACGGUAAUAGGCCAUGGAAACUAGGAGCACCAUUUCGCUGCCAGUGAAGAAAUGAACAAAGAAAAUCUGGGCCAGGCAGGCAUCAAAAGAAAUAGUCUUGCGCUCAACCAGAAAGUCUGUAAUCAUUUUAAGGGUA [U2C C10A], with 1.94.
Consider GCUAACGGUCAUAGGCCAUGAAAACUAGGAGCACCAUUUCGCUGCCAGUGAAGAAAUGAACAAAGAAAAUCUGGGCCAGGCAGGCAUCAAAAGAAAUAGUCUUGCGCUCAACCAGAAAGUCUGUAAUCAUUUUAAGGGUA [U2C G21A], for which the self-cleavage was 0.98.
Then GCUAACGGUCAUAGGCCAUGGAAACUAGGAGCACCAUUUCGCUGCCAUUGAAGAAAUGAACAAAGAAAAUCUGGGCCAGGCAGGCAUCAAAAGAAAUAGUCUUGCGCUCAACCAGAAAGUCUGUAAUCAUUUUAAGGGUA [U2C G48U], with 0.43.
For the variant GCUAACGGUCAUAGGCCAUGGAAACUAGGAGCACCAUUUCGCUGCCAGUGAAGAAAUGAACAAAGAAAAUCUGGGCCAGGCAGGCAUCAAAAGAAAUAGUCUUGCGCUCAACCAGAAAGUCUGUAAUCAUUUUAGGGGUA [U2C A135G], the self-cleavage was found to be 1.32.
